Earlier results in PMC7514057.

Molecular target: ArkA peptide (Ark1p) Lys(3) to Lys(-8) (Saccharomyces cerevisiae) (UniProt P53974)

Kd: 1700 nM
Substance: Abp1p SH3 (from UniProt P15891)
